# B1: Transcription intermediary factor 1-beta (Homo sapiens), Q13263 (parent)
# chain: MAASAAAASAAAASAASGSPGPGEGSAGGEKRSTAPSAAASASASAAASSPAGGGAEALELLEHCGVCRERLRPEREPRLLPCLHSACSACLGPAAPAAANSSGDGGAAGDGTVVDCPVCKQQCFSKDIVENYFMRDSGSKAATDAQDANQCCTSCEDNAPATSYCVECSEPLCETCVEAHQRVKYTKDHTVRSTGPAKSRDGERTVYCNVHKHEPLVLFCESCDTLTCRDCQLNAHKDHQYQFLEDAVRNQRKLLASLVKRLGDKHATLQKSTKEVRSSIRQVSDVQKRVQVDVKMAILQIMKELNKRGRVLVNDAQKVTEGQQERLERQHWTMTKIQKHQEHILRFASWALESDNNTALLLSKKLIYFQLHRALKMIVDPVEPHGEMKFQWDLNAWTKSAEAFGKIVAERPGTNSTGPAPMAPPRAPGPLSKQGSGSSQPMEVQEGYGFGSGDDPYSSAEPHVSGVKRSRSGEGEVSGLMRKVPRVSLERLDLDLTADSQPPVFKVFPGSTTEDYNLIVIERGAAAAATGQPGTAPAGTPGAPPLAGMAIVKEEETEAAIGAPPTATEGPETKPVLMALAEGPGAEGPRLASPSGSTSSGLEVVAPEGTSAPGGGPGTLDDSATICRVCQKPGDLVMCNQCEFCFHLDCHLPALQDVPGEEWSCSLCHVLPDLKEEDGSLSLDGADSTGVVAKLSPANQRKCERVLLALFCHEPCRPLHQLATDSTFSLDQPGGTLDLTLIRARLQEKLSPPYSSPQEFAQDVGRMFKQFNKLTEDKADVQSIIGLQRFFETRMNEAFGDTKFSAVLVEPPPMSLPGAGLSSQELSGGPGDGP
# Variants of: B1
# Conditions: with chd3_human CHD3, Q12873
# Sequence of chd3_human CHD3, Q12873 (Q12873 whole entry): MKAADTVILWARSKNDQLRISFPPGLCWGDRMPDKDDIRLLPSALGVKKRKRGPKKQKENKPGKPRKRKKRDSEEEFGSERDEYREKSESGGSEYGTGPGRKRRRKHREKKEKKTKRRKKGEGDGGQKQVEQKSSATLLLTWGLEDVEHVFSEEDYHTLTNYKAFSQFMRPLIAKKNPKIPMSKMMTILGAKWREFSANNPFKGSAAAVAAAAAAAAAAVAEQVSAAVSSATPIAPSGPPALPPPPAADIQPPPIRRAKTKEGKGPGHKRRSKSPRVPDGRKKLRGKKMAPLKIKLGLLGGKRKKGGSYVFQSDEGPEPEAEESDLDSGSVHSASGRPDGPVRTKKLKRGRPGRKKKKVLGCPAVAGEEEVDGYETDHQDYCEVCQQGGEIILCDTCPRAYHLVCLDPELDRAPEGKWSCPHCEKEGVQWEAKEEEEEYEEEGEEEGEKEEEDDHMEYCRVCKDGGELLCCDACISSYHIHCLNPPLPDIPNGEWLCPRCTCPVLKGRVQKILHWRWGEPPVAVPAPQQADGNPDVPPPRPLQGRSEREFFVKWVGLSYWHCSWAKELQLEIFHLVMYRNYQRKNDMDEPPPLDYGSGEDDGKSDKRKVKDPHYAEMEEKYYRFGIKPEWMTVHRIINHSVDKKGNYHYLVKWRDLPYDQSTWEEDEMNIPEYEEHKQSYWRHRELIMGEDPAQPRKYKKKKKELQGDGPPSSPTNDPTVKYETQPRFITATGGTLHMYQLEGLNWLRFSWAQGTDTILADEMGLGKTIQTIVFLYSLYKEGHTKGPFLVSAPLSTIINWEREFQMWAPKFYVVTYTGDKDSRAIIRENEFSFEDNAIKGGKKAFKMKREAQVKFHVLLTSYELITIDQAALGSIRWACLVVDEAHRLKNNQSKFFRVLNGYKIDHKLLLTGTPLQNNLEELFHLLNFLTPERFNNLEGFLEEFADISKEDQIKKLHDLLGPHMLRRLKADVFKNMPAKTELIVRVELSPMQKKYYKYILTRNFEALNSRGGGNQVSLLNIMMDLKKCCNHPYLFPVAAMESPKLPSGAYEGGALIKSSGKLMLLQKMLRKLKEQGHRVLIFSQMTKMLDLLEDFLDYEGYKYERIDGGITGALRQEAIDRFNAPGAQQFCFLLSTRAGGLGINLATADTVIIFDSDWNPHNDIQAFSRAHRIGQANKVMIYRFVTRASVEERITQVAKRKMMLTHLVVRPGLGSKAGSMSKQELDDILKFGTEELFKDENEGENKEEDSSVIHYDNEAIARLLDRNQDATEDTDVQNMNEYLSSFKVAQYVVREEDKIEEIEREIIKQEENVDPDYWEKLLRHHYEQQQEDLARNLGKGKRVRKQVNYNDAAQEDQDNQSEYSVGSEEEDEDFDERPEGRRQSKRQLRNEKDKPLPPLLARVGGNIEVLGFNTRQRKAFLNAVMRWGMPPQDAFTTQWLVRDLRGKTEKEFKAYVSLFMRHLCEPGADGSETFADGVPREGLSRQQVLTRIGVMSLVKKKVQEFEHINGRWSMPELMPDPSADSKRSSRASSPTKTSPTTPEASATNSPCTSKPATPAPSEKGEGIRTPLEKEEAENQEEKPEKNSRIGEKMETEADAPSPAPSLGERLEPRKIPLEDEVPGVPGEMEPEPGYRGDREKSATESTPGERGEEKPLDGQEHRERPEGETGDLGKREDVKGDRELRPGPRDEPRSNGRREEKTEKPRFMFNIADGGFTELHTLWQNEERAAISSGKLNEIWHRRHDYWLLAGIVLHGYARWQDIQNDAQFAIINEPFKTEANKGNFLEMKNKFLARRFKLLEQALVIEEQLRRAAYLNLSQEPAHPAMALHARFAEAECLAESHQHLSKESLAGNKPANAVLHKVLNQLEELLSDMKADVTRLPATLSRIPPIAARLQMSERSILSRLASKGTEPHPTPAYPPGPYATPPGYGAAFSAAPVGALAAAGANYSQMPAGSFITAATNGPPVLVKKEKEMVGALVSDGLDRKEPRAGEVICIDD
row,Variant,effect of a mutation on the interaction
1,K554R;K779R;K804R,disrupting interaction
2,S824D,decreasing interaction
